According to paper PMC7060199, “DJ-1 suppresses ferroptosis through preserving the activity of S-adenosyl homocysteine hydrolase” (Nature Communications, 2020):

B1: S-adenosyl homocysteine hydrolase (enzyme, human (endogenous in H1299), UniProt P23526 1-432, looked up)
chain: MSDKLPYKVADIGLAAWGRKALDIAENEMPGLMRMRERYSASKPLKGARIAGCLHMTVETAVLIETLVTLGAEVQWSSCNIFSTQDHAAAAIAKAGIPVYAWKGETDEEYLWCIEQTLYFKDGPLNMILDDGGDLTNLIHTKYPQLLPGIRGISEETTTGVHNLYKMMANGILKVPAINVNDSVTKSKFDNLYGCRESLIDGIKRATDVMIAGKVAVVAGYGDVGKGCAQALRGFGARVIITEIDPINALQAAMEGYEVTTMDEACQEGNIFVTTTGCIDIILGRHFEQMKDDAIVCNIGHFDVEIDVKWLNENAVEKVNIKPQVDRYRLKNGRRIILLAEGRLVNLGCAMGHPSFVMSNSFTNQVMAQIELWTHPDKYPVGVHFLPKKLDEAVAEAHLGKLNVKLTKLTEKQAQYLGMSCDGPFKPDHYRY
notes: S-adenosyl homocysteine hydrolase (SAHH) of H1299 cells; also called SAHH; source: H1299 cell lysate (control KD and DJ-1 KD)
B2: SAHH in HEK293T cells (enzyme, UniProt P23526 1-432, looked up)
chain: B1 chain
notes: S-adenosyl homocysteine hydrolase (SAHH) in HEK293T cells with DJ-1 overexpression; source: HEK293T cells

Assays:
[1] = biological target: the molecule itself; assay: cross-linking; cells incubated with 2 mM DSS for 30 min at 25 C, quenched with 1 M Tris-HCl pH 7.4; western blot; control and DJ-1 KD
[2] = biological target: the molecule itself; assay: not stated; HEK293T cells with DJ-1 overexpression (Supplementary Fig. 6j)

Protein | stoichiometry N [1] | stoichiometry N [2]
B1 | 4 | –
B2 | – | 4
